{
  "source": "patent US20120316071A1",
  "key": {"[1]": {"target": "rHuman HGF R/c-MET/Fc Chimera, CF (R&D Systems Cat#358-MT/CF) (human) (UniProt P08581)", "sequence (P08581 25-932, change not shown)": "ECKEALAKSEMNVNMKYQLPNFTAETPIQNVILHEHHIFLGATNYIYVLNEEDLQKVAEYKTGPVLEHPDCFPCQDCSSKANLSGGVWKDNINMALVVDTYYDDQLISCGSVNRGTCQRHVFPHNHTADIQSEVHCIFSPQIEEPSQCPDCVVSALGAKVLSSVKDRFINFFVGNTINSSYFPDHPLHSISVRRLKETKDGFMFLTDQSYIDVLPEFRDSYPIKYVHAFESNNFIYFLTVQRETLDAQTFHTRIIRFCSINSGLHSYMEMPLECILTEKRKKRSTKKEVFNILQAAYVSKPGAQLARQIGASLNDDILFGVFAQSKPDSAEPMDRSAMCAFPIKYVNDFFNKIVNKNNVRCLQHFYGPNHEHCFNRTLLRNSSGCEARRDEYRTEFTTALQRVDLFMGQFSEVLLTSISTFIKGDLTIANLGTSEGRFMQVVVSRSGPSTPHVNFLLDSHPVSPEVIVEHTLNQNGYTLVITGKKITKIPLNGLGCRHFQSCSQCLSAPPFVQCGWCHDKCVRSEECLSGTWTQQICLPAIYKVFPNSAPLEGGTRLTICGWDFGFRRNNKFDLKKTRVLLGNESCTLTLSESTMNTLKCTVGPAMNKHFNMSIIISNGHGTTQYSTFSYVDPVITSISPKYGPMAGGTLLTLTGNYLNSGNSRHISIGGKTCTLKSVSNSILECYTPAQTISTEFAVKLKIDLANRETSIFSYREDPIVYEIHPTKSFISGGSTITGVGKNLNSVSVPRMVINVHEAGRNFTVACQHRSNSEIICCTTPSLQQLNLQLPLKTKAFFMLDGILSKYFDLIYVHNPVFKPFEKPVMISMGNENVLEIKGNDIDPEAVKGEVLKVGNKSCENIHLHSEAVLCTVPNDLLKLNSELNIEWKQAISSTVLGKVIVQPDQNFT", "experiment": "Multispot ECL (MSD), antigen spotted on plate, Fab 70 nM; blank spot 635"}, "[2]": {"target": "rHuman P-Cadherin/Fc Chimera, CF (R&D Systems Cat#861-PC) (human) (UniProt P22223)", "experiment": "Multispot ECL (MSD), antigen spotted on plate, Fab 70 nM; blank spot 635"}, "[3]": {"target": "rHuman ErbB2/Fc Chimera, CF (R&D Systems Cat#1129-ER) (human) (UniProt P04626)", "experiment": "Multispot ECL (MSD), antigen spotted on plate, Fab 70 nM; blank spot 635"}, "[4]": {"target": "rHuman Notch-1/Fc Chimera, CF (R&D Systems Cat#3647-TK) (human) (UniProt P46531)", "experiment": "Multispot ECL (MSD), antigen spotted on plate, Fab 70 nM; blank spot 635"}, "[5]": {"target": "rHuman CD44/Fc Chimera, CF (R&D Systems Cat#3660-CD) (human) (UniProt P16070)", "experiment": "Multispot ECL (MSD), antigen spotted on plate, Fab 70 nM; blank spot 635"}, "[6]": {"target": "rHuman IGF-1 sR, (IGF-1 sR), CF (R&D Systems Cat#391-GR) (human) (UniProt P08069)", "experiment": "Multispot ECL (MSD), antigen spotted on plate, Fab 70 nM; blank spot 635"}, "[7]": {"target": "rHuman HGF R/c-MET/Fc Chimera, CF (R&D Systems Cat#358-MT/CF) (human) (UniProt P08581)", "experiment": "Multispot ECL (MSD), antigen spotted on plate, Fab 280 nM; blank spot 1691"}, "[8]": {"target": "rHuman P-Cadherin/Fc Chimera, CF (R&D Systems Cat#861-PC) (human) (UniProt P22223)", "experiment": "Multispot ECL (MSD), antigen spotted on plate, Fab 280 nM; blank spot 1691"}, "[9]": {"target": "rHuman ErbB2/Fc Chimera, CF (R&D Systems Cat#1129-ER) (human) (UniProt P04626)", "experiment": "Multispot ECL (MSD), antigen spotted on plate, Fab 280 nM; blank spot 1691"}, "[10]": {"target": "rHuman Notch-1/Fc Chimera, CF (R&D Systems Cat#3647-TK) (human) (UniProt P46531)", "experiment": "Multispot ECL (MSD), antigen spotted on plate, Fab 280 nM; blank spot 1691"}, "[11]": {"target": "rHuman CD44/Fc Chimera, CF (R&D Systems Cat#3660-CD) (human) (UniProt P16070)", "experiment": "Multispot ECL (MSD), antigen spotted on plate, Fab 280 nM; blank spot 1691"}, "[12]": {"target": "rHuman IGF-1 sR, (IGF-1 sR), CF (R&D Systems Cat#391-GR) (human) (UniProt P08069)", "experiment": "Multispot ECL (MSD), antigen spotted on plate, Fab 280 nM; blank spot 1691"}, "[13]": {"target": "rHuman HGF R/c-MET/Fc Chimera, CF (R&D Systems Cat#358-MT/CF) (human) (UniProt P08581)", "experiment": "Multispot ECL (MSD), antigen spotted on plate, Fab 17.5 nM; blank spot 304"}, "[14]": {"target": "rHuman P-Cadherin/Fc Chimera, CF (R&D Systems Cat#861-PC) (human) (UniProt P22223)", "experiment": "Multispot ECL (MSD), antigen spotted on plate, Fab 17.5 nM; blank spot 304"}, "[15]": {"target": "rHuman ErbB2/Fc Chimera, CF (R&D Systems Cat#1129-ER) (human) (UniProt P04626)", "experiment": "Multispot ECL (MSD), antigen spotted on plate, Fab 17.5 nM; blank spot 304"}, "[16]": {"target": "rHuman Notch-1/Fc Chimera, CF (R&D Systems Cat#3647-TK) (human) (UniProt P46531)", "experiment": "Multispot ECL (MSD), antigen spotted on plate, Fab 17.5 nM; blank spot 304"}, "[17]": {"target": "rHuman CD44/Fc Chimera, CF (R&D Systems Cat#3660-CD) (human) (UniProt P16070)", "experiment": "Multispot ECL (MSD), antigen spotted on plate, Fab 17.5 nM; blank spot 304"}, "[18]": {"target": "rHuman IGF-1 sR, (IGF-1 sR), CF (R&D Systems Cat#391-GR) (human) (UniProt P08069)", "experiment": "Multispot ECL (MSD), antigen spotted on plate, Fab 17.5 nM; blank spot 304"}, "[19]": {"target": "rHuman HGF R/c-MET/Fc Chimera, CF (R&D Systems Cat#358-MT/CF) (human) (UniProt P08581)", "experiment": "Multispot ECL (MSD), antigen spotted on plate, Fab 4.375 nM; blank spot 305"}, "[20]": {"target": "rHuman P-Cadherin/Fc Chimera, CF (R&D Systems Cat#861-PC) (human) (UniProt P22223)", "experiment": "Multispot ECL (MSD), antigen spotted on plate, Fab 4.375 nM; blank spot 305"}, "[21]": {"target": "rHuman ErbB2/Fc Chimera, CF (R&D Systems Cat#1129-ER) (human) (UniProt P04626)", "experiment": "Multispot ECL (MSD), antigen spotted on plate, Fab 4.375 nM; blank spot 305"}, "[22]": {"target": "rHuman Notch-1/Fc Chimera, CF (R&D Systems Cat#3647-TK) (human) (UniProt P46531)", "experiment": "Multispot ECL (MSD), antigen spotted on plate, Fab 4.375 nM; blank spot 305"}, "[23]": {"target": "rHuman CD44/Fc Chimera, CF (R&D Systems Cat#3660-CD) (human) (UniProt P16070)", "experiment": "Multispot ECL (MSD), antigen spotted on plate, Fab 4.375 nM; blank spot 305"}, "[24]": {"target": "rHuman IGF-1 sR, (IGF-1 sR), CF (R&D Systems Cat#391-GR) (human) (UniProt P08069)", "experiment": "Multispot ECL (MSD), antigen spotted on plate, Fab 4.375 nM; blank spot 305"}, "[25]": {"target": "rHuman EGF R/Fc Chimera, CF (R&D Systems Cat#344-ER) (human) (UniProt P00533)", "experiment": "MSD Multispot ECL, antigen spotted on plate, Fab 14.375 nM; blank spot 738"}, "[26]": {"target": "rHuman EGF R/Fc Chimera, CF (R&D Systems Cat#344-ER) (human) (UniProt P00533)", "experiment": "MSD Multispot ECL, antigen spotted on plate, Fab 230 nM; blank spot 1656"}, "[27]": {"target": "rHuman EGF R/Fc Chimera, CF (R&D Systems Cat#344-ER) (human) (UniProt P00533)", "experiment": "MSD Multispot ECL, antigen spotted on plate, Fab 920 nM; blank spot 4082"}, "[28]": {"target": "rHuman EGF R/Fc Chimera, CF (R&D Systems Cat#344-ER) (human) (UniProt P00533)", "experiment": "MSD Multispot ECL, antigen spotted on plate, Fab 57.5 nM; blank spot 954"}},
  "data": [
    {"substance": "Fab VH1-46_IGHD2-15*01_IGHJ2*01 & L12_IGKJ1*01", "values": [
      {"measurement": "ECL signal", "setting": "[1]", "result": 1290},
      {"measurement": "ECL signal", "setting": "[2]", "result": 1820},
      {"measurement": "ECL signal", "setting": "[3]", "result": 1360},
      {"measurement": "ECL signal", "setting": "[4]", "result": 1490},
      {"measurement": "ECL signal", "setting": "[5]", "result": 1370},
      {"measurement": "ECL signal", "setting": "[6]", "result": 1320},
      {"measurement": "ECL signal", "setting": "[7]", "result": 3560},
      {"measurement": "ECL signal", "setting": "[8]", "result": 5400},
      {"measurement": "ECL signal", "setting": "[9]", "result": 3950},
      {"measurement": "ECL signal", "setting": "[10]", "result": 4380},
      {"measurement": "ECL signal", "setting": "[11]", "result": 4070},
      {"measurement": "ECL signal", "setting": "[12]", "result": 3530},
      {"measurement": "ECL signal", "setting": "[13]", "result": 565},
      {"measurement": "ECL signal", "setting": "[14]", "result": 949},
      {"measurement": "ECL signal", "setting": "[15]", "result": 541},
      {"measurement": "ECL signal", "setting": "[16]", "result": 680},
      {"measurement": "ECL signal", "setting": "[17]", "result": 664},
      {"measurement": "ECL signal", "setting": "[18]", "result": 626},
      {"measurement": "ECL signal", "setting": "[19]", "result": 193},
      {"measurement": "ECL signal", "setting": "[20]", "result": 469},
      {"measurement": "ECL signal", "setting": "[21]", "result": 384},
      {"measurement": "ECL signal", "setting": "[22]", "result": 480},
      {"measurement": "ECL signal", "setting": "[23]", "result": 424},
      {"measurement": "ECL signal", "setting": "[24]", "result": 369}
    ]},
    {"substance": "Fab VH1-46_IGHD3-10*01_IGHJ4*01 & L12_IGKJ1*01", "values": [
      {"measurement": "ECL signal", "setting": "[25]", "result": 2670},
      {"measurement": "ECL signal", "setting": "[26]", "result": 5720},
      {"measurement": "ECL signal", "setting": "[27]", "result": 13400},
      {"measurement": "ECL signal", "setting": "[28]", "result": 3860}
    ]}
  ]
}
